In patent publication US20250074996A1 (Innovent, published 2025):
Like-named read-outs stand apart in the source and are kept apart here.

B1: TS-F6-1 (antibody, human IgG1, kappa, L234A L235A)
heavy: not shown
light: DIQMTQTTSSLSASLGDRVTISCRASQDIRNYLNWYQQRPDGTIKLLIYYTSRLHSGVPSRFSGSGSGTDYSLTISNLDQEDFATYFCQQGNMLPWTFGGGTSLEIKRTVAAPSVFIFPPSDEQLKSGTASVVCLLNNFYPREAKVQWKVDNALQSGNSQESVTEQDSKDSTYSLSSTLTLSKADYEKHKVYACEVTHQGLSSPVTKSFNRGECGGGGSGGGGSQAVVTQEPSLTVSPGGTVTLTCRSSTGAVTTSNYANWVQQKPGQAPRGLIGGTNKRAPGVPARFSGSLLGDKAALTLLGAQPEDEAEYYCALWYSNLWVFGCGTKLTVLGGGGSGGGGSGGGGSGGGGSEVQLVESGGGLVQPGGSLKLSCAASGFTFNTYAMNWVRQASGKCLEWVGRIRSKYNNYATYYADSVKDRFTISRDDSKSTLYLQMNSLKTEDTAVYYCARHGNFGQSYVSWFAYWGQGTTVTVSS
B2: GPRC5D×CD3 bispecific antibody (ch7F5D4/hzsp34.24) (bispecific antibody, V domains shown)
VH 1: DVQLQESGPGLVKPSQSLSLTCTVTGYSITSDYAWNWIRQFPGNKLEWMVYIDYTGRTSYNPSLKSRISLTRDTSKNQFFLQFNSVTTEDTATYYCARGNYGRYYYVMDYWGQGTSVTVSS
VL 1: DIQMTQTTSSLSASLGDRVTISCRASQDIRNYLNWYQQRPDGTIKLLIYYTSRLHSGVPSRFSGSGSGTDYSLTISNLDQEDFATYFCQQGNMLPWTFGGGTSLEIK
VH 2: EVQLVESGGGLVQPGGSLKLSCAASGFTFNTYAMNWVRQASGKGLEWVGRIRSKYNNYATYYADSVKDRFTISRDDSKSTLYLQMNSLKTEDTAVYYCARHGNFGQSYVSWFAYWGQGTTVTVSS
VL 2: QAVVTQEPSLTVSPGGTVTLTCRSSTGAVTTSNYANWVQQKPGQAPRGLIGGTNKRAPGVPARFSGSLLGDKAALTLLGAQPEDEAEYYCALWYSNLWVFGQGTKLTVL
B3: BCMA×CD3 bispecific antibody (38456/hzsp34.24) (bispecific antibody, V domains shown)
VH 1: EVQLVESGGGLVQPGRSLRLSCAASGFTFGDYAIHWVRQAPGKGLEWVSGISWDSSSIAYADSVKGRFTISRDNAKNSLYLQMNSLRAEDTAVYYCAKDSPVRDSFGSIAFDIWGQGTMVTVSS
VL 1: EIVLTQSPATLSLSPGERATLSCRASQSVSSYLAWYQQKPGQAPRLLIYDASKRATGIPARFSGSGSGTDFTLTISSLEPEDFAVYYCQQASALPLTFGGGTKVEIK
VH 2: B2 VH 2
VL 2: B2 VL 2
B4: TS-F2-3 (ch7F5D4/SP34.24/38456) (antibody, human IgG1, kappa, lambda, L234A L235A)
heavy 1: not shown
light 1: DIQMTQTTSSLSASLGDRVTISCRASQDIRNYLNWYQQRPDGTIKLLIYYTSRLHSGVPSRFSGSGSGTDYSLTISNLDQEDFATYFCQQGNMLPWTFGGGTSLEIKRTVAAPSVFIFPPSDEQLKSGTASVVCLLNNFYPREAKVQWKVDNALQSGNSQESVTEQDSKDSTYSLSSTLTLSKADYEKHKVYACEVTHQGLSSPVTKSFNRGEC
heavy 2: not shown
light 2: QAVVTQEPSLTVSPGGTVTLTCRSSTGAVTTSNYANWVQQKPGQAPRGLIGGTNKRAPGVPARFSGSLLGDKAALTLLGAQPEDEAEYYCALWYSNLWVFGQGTKLTVLGQPKAAPSVTLFPPSSEELQANKATLVCLISDFYPGAVTVAWKADSSPVKAGVETTTPSKQSNNKYAASSYLSLTPEQWKSHRSYSCQVTHEGSTVEKTVAPTECS
B5: TS-F6-2 (antibody, human IgG1, kappa, L234A L235A)
heavy: not shown
light: DIQMTQTTSSLSASLGDRVTISCRASQDIRNYLNWYQQRPDGTIKLLIYYTSRLHSGVPSRFSGSGSGTDYSLTISNLDQEDFATYFCQQGNMLPWTFGGGTSLEIKRTVAAPSVFIFPPSDEQLKSGTASVVCLLNNFYPREAKVQWKVDNALQSGNSQESVTEQDSKDSTYSLSSTLTLSKADYEKHKVYACEVTHQGLSSPVTKSFNRGECGGGGSGGGGSEVQLVESGGGLVQPGGSLKLSCAASGFTFNTYAMNWVRQASGKCLEWVGRIRSKYNNYATYYADSVKDRFTISRDDSKSTLYLQMNSLKTEDTAVYYCARHGNFGQSYVSWFAYWGQGTTVTVSSGGGGSGGGGSGGGGSGGGGSQAVVTQEPSLTVSPGGTVTLTCRSSTGAVTTSNYANWVQQKPGQAPRGLIGGTNKRAPGVPARFSGSLLGDKAALTLLGAQPEDEAEYYCALWYSNLWVFGCGTKLTVL

Assays:
[1] = molecular target: T1, CD3E on the surface of Jurkat-NFAT-Luc cells (UniProt P07766 23-207); assay: cell-based or functional assay
[2] = molecular target: T1, CD3E on the surface of Jurkat-NFAT-Luc …; assay: cell-based or functional assay; remark: listed apart in the source

T1 sequence (P07766 23-207): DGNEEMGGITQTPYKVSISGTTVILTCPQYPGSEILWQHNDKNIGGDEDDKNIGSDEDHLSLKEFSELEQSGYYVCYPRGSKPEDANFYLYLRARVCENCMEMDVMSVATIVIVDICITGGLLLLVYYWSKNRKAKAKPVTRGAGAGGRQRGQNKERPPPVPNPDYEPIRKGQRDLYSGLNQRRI

Binder	EC50 of Jurkat-NFAT-Luc luciferase activation; target cells huGPRC5D-GS-CHO [1]	EC50 of Jurkat-NFAT-Luc luciferase activation; tumor cells H929 [1]	EC50 of Jurkat-NFAT-Luc luciferase activation; tumor cells L363 [1]	EC50 of Jurkat-NFAT-Luc luciferase activation; tumor cells U266 [1]	EC50 of Jurkat-NFAT-Luc luciferase activation; tumor cells 8226 [2]	EC50 of Jurkat-NFAT-Luc luciferase activation; tumor cells H929 [2]	EC50 of Jurkat-NFAT-Luc luciferase activation; tumor cells L363 [2]	EC50 of Jurkat-NFAT-Luc luciferase activation; tumor cells U266 [2]
B1	9.66 pM	3790 pM	77.1 pM	366 pM	–	–	–	–
B2	5.66 pM	7.72 pM	5.62 pM	36.1 pM	–	–	–	–
B3	–	–	–	–	4.82 pM	59.6 pM	36.6 pM	11 pM
B4	1.45 pM	5.47 pM	2.86 pM	47 pM	–	–	–	–
B5	–	2200 pM	61.7 pM	–	–	–	–	–
